The values that follow come from publication PMC12415261 (Proceedings of the National Academy of Sciences of the …, 2025).

B1: ALK3-Fc (homodimeric Fc-fusion of ALK3-ECD) [human] / Recombinant human BMP6, mammalian expressed (glycosylated) [modified: N-linked glycosylation at Asn454 (prehelical loop); N-linked glycosylation at Asn454 (prehelical loop)] [human] (parent complex)
chain 1: QNLDSMLHGTGMKSDSDQKKSENGVTLAPEDTLPFLKCYCSGHCPDDAINNTCITNGHCFAIIEEDDQGETTLASGCMKYEGSDFQCKDSPKAQLRRTIECCRTNLCNQYLQPTLPPVVIGPFFDGSIR
chain 2: SASSRRRQQSRNRSTQSQDVARVSSASDYNSSELKTACRKHELYVSFQDLGWQDWIIAPKGYAANYCDGECSFPLNAHMNATNHAIVQTLVHLMNPEYVPKPCCAPTKLNAISVLYFDDNSNVILKKYRNMVVRACGCH

Variants of B1 are the subject of this assay. In words: SPR; top curve of the analyte series, read at the end of association (about 300 s); analyte concentrations not given; receptor-Fc captured by anti-human antibody; read off a plot. For orientation: In SPR one partner is held on a chip, and binding of the other changes the refractive index at the surface.
Turning to chain 1 QNLDSMLHGTGMKSDSDQKKSENGVTLAPEDTLPFLKCYCSGHCPGDAINNTCITNGHCFAIIEEDDQGETTLASGCMKYEGSDFQCKDSPKAQLRRTIECCRTNLCNQYLQPTLPPVVIGPFFDGSIR [chain 1 D46G], the response was roughly 9.5 RLU.
